Test results taken from article PMC8794802.

What was measured:
Pus7 delta ID-I = molecular target: T1, Pus7 delta ID-I (Saccharomyces cerevisiae, UniProt Q08647 1-74+216-676, internal_change); test: EMSA
T1 sequence: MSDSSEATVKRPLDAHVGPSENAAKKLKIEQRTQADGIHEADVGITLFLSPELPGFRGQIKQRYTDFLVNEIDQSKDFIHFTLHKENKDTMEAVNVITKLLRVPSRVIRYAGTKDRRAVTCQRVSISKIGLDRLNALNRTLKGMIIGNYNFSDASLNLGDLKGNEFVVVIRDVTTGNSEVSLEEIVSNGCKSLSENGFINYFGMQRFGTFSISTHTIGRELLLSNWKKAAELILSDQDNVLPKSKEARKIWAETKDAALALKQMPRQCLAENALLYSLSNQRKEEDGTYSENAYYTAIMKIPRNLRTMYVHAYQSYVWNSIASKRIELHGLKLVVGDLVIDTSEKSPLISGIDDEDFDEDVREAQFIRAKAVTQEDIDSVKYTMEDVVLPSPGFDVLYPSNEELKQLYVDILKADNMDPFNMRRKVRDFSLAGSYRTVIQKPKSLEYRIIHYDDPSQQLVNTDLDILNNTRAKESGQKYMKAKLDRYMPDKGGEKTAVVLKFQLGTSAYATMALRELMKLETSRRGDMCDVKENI

Pus7 WT = molecular target: T2, Pus7 WT (Saccharomyces cerevisiae, UniProt Q08647 1-676); test: EMSA
T2 sequence: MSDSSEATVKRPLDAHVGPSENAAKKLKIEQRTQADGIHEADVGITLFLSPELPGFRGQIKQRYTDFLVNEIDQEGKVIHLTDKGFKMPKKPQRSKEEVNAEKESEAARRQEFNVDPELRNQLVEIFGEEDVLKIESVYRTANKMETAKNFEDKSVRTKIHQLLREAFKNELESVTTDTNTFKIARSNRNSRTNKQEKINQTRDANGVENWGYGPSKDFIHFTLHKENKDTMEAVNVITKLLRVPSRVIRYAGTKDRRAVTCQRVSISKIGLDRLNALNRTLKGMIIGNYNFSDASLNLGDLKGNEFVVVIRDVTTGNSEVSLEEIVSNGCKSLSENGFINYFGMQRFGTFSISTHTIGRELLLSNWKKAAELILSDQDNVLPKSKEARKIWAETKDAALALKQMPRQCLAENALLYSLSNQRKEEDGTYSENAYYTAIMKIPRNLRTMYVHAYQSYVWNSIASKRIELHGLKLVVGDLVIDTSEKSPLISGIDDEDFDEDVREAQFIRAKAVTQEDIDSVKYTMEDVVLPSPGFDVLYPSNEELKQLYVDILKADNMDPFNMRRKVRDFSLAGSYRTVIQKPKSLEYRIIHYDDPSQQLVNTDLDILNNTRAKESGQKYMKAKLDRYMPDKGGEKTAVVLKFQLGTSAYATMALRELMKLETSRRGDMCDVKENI

B1: Psi-modified CDC8 (ssRNA)
RNA: GUCAAUCACGAUUGUAGACGUUACUAAUAAGGGCAUUCAGGAAGUUGAAGCGCUUAUUUGG
modifications: pseudouridine at the UGUAG target U (U15)
binding signal (Pus7 delta ID-I): 8 fold weaker than D256A/delta ID-I on unmodified CDC8 | Kd (Pus7 WT): 75 ± 15 nM
